Experimental findings from paper PMC6555819, “Comprehensive study of nuclear receptor DNA binding provides a revised framework for understanding receptor specificity” are described below.

The labels stand for the following.
B1: NRC3_wobSeed31_DR1_A13T_o1 (dsDNA)
DNA 1: GCTCATATAGGTTAAAGGTGAAAGTCGGTGTGGTAAGCGATTGACAGCGTAGAATGAAGG
DNA 2: CCTTCATTCTACGCTGTCAATCGCTTACCACACCGACTTTCACCTTTAACCTATATGAGC
B2: NRC3_wobSeed25_DR1_A23C_o1 (dsDNA)
DNA 1: GCCAAACTAGGTCAAAGGTCAACGTCGAGCCAACCAGCGATTGACAGCGTAGAATGAAGG
DNA 2: CCTTCATTCTACGCTGTCAATCGCTGGTTGGCTCGACGTTGACCTTTGACCTAGTTTGGC
B3: NRC3_wobSeed42_DR1_A8T_o1 (dsDNA)
DNA 1: GCTATACTGGGTCAAAGGCCAGAGTACGAATGTCGAGCGATTGACAGCGTAGAATGAAGG
DNA 2: CCTTCATTCTACGCTGTCAATCGCTCGACATTCGTACTCTGGCCTTTGACCCAGTATAGC
B4: NRC3_wobSeed97_DR4_G27A_o1 (dsDNA)
DNA 1: GCCAAACTAGGTCACGAAAGGTCAAAATCGAATGACGCGATTGACAGCGTAGAATGAAGG
DNA 2: CCTTCATTCTACGCTGTCAATCGCGTCATTCGATTTTGACCTTTCGTGACCTAGTTTGGC
B5: NRC3_wobSeed97_DR4_C7G_o1 (dsDNA)
DNA 1: GCCAAAGTAGGTCACGAAAGGTCAAAGTCGAATGACGCGATTGACAGCGTAGAATGAAGG
DNA 2: CCTTCATTCTACGCTGTCAATCGCGTCATTCGACTTTGACCTTTCGTGACCTACTTTGGC
B6: NRC3_wobSeed97_DR4_A4T_o1 (dsDNA)
DNA 1: GCCTAACTAGGTCACGAAAGGTCAAAGTCGAATGACGCGATTGACAGCGTAGAATGAAGG
DNA 2: CCTTCATTCTACGCTGTCAATCGCGTCATTCGACTTTGACCTTTCGTGACCTAGTTAGGC
B7: NRC3_wobSeed97_DR4_C29T_o1 (dsDNA)
DNA 1: GCCAAACTAGGTCACGAAAGGTCAAAGTTGAATGACGCGATTGACAGCGTAGAATGAAGG
DNA 2: CCTTCATTCTACGCTGTCAATCGCGTCATTCAACTTTGACCTTTCGTGACCTAGTTTGGC
B8: NRC3_wobSeed39_DR1_A19C_o1 (dsDNA)
DNA 1: GCCGAACTAGGTCAAAGGCCAGTGAAAGGCGACGTAGCGATTGACAGCGTAGAATGAAGG
DNA 2: CCTTCATTCTACGCTGTCAATCGCTACGTCGCCTTTCACTGGCCTTTGACCTAGTTCGGC
B9: NRC3_wobSeed39_DR1_G22C_o1 (dsDNA)
DNA 1: GCCGAACTAGGTCAAAGGACACTGAAAGGCGACGTAGCGATTGACAGCGTAGAATGAAGG
DNA 2: CCTTCATTCTACGCTGTCAATCGCTACGTCGCCTTTCAGTGTCCTTTGACCTAGTTCGGC
B10: NRC3_wobSeed73_DR3_A4T_o1 (dsDNA)
DNA 1: GCCTAACTAGGTCACAGAGGTCAAAGTCCGTGCGTAGCGATTGACAGCGTAGAATGAAGG
DNA 2: CCTTCATTCTACGCTGTCAATCGCTACGCACGGACTTTGACCTCTGTGACCTAGTTAGGC
B11: NRC3_wobSeed30_DR1_C8T_o1 (dsDNA)
DNA 1: GCACTAGTAGGCCAAGGGTCACTCAAGATTAGTCCGGCGATTGACAGCGTAGAATGAAGG
DNA 2: CCTTCATTCTACGCTGTCAATCGCCGGACTAATCTTGAGTGACCCTTGGCCTACTAGTGC
B12: NRC3_wobSeed33_DR1_A13G_o1 (dsDNA)
DNA 1: GCATCTCTAGGTGAAAGTTCAGTGAATCCCGAGGATGCGATTGACAGCGTAGAATGAAGG
DNA 2: CCTTCATTCTACGCTGTCAATCGCATCCTCGGGATTCACTGAACTTTCACCTAGAGATGC
B13: NRC3_wobSeed49_DR2_T26G_o1 (dsDNA)
DNA 1: GCCAAACTAGGTCAAGAGGTCAAAGGCCGCTTCCCGGCGATTGACAGCGTAGAATGAAGG
DNA 2: CCTTCATTCTACGCTGTCAATCGCCGGGAAGCGGCCTTTGACCTCTTGACCTAGTTTGGC

The target in the data set is PPARg:RXRa (Homo sapiens, UniProt P37231;P19793 full;full). The data set can be described thus: no ligand; PBM; 180 nM : 90 nM RXRa; PBS pH 7.4, 2% milk, 0.02% Triton X-100, 1 mM DTT, BSA, 0.4 mg/ml salmon testes DNA. Particulars: tags: His kept;His cleaved; copies: 1;1; label: surface-attached array probe.
PPARg:RXRa, sequence (P37231 29-505, chain 1 of 2): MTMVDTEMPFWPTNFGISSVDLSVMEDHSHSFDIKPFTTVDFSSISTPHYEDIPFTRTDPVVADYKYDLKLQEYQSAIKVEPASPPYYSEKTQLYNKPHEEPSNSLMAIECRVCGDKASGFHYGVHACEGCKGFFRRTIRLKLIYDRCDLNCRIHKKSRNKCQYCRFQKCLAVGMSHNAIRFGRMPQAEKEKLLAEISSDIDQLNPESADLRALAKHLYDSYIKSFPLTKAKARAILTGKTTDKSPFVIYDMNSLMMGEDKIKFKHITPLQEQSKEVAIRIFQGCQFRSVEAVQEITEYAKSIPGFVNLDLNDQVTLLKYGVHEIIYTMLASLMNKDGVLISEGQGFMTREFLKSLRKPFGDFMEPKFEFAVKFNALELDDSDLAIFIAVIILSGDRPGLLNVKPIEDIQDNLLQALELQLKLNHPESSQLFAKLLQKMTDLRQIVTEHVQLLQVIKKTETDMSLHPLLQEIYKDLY
PPARg:RXRa, sequence (P19793 whole entry, chain 2 of 2): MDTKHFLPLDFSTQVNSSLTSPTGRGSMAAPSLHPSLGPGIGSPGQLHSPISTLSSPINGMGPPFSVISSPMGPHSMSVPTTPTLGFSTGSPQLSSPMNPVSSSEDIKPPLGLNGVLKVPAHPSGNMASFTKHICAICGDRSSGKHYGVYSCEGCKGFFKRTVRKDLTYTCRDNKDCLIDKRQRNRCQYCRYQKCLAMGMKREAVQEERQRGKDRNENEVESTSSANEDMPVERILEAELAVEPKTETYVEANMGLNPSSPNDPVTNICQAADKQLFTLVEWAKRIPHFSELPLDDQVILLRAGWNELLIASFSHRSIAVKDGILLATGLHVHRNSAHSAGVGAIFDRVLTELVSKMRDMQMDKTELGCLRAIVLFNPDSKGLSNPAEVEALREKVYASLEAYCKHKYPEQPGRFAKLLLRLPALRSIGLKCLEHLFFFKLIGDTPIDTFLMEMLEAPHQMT
Consider B1, for which the binding signal is 10.8 PBM z-score against 500 random probes. Turning to B2, the binding signal was 14.2 PBM z-score against 500 random probes.

As to B3, the binding signal is 10.8 PBM z-score against 500 random probes. Consider B4, for which the binding signal is 10.9 PBM z-score against 500 random probes.

For B5, the binding signal was 10.8 PBM z-score against 500 random probes. Under B6 stands 10.8 PBM z-score against 500 random probes; under B7, 10.9 PBM z-score against 500 random probes. Consider B8, for which the binding signal is 11.3 PBM z-score against 500 random probes. As for B9, the binding signal was 11.2 PBM z-score against 500 random probes.

Take B10: the binding signal is 10.9 PBM z-score against 500 random probes.

For the molecule B11, the binding signal is 10.9 PBM z-score against 500 random probes. On to B12, for which the binding signal was 10.7 PBM z-score against 500 random probes. As to B13, the binding signal is 10.9 PBM z-score against 500 random probes.
